From patent publication US20260139049A1 (PEDIATRIC IMMUNITY AND HEALTHCARE GUANGZHOU BIOTECHNOLOGY, published 2026)

B1: 51C10H4 (antibody, human IgG1, kappa, V domains shown)
VH: EVQLQQSGPELVKPGASVKMSCKASGYTFTDYNMHWVKKSHGKSLEWIGYVNPNNGATSYNQKFKGKATLTVNKSSSTAYMELRSLTSEDSAVYNCARWDGYVYYYGLDYWGQGTSVTVSS
VL: DIQMTQSSSYLSVSLGGRVTITCKASDHINNWLAWYQQKPGNAPRLLISGATSLETGVPSRFSGSGSGKDYTLSITSLQTEDVATYYCQQYWSTPYTFGGGTKLEIKR
notes: chimeric IgG1
B2: 51C10-M2 (antibody, human IgG1, kappa, V domains shown)
VH: EVQLQQSGPELVKPGASVKMSCKASGYTFTDYNMHWVKKSHGKSLEWIGYVNPNQGATSYNQKFKGKATLTVNKSSSTAYMELRSLTSEDSAVYNCARWDGYVYYYGLDYWGQGTSVTVSS
VL: DIQMTQSSSYLSVSLGGRVTITCKASDHINNWLAWYQQKPGNAPRLLISGATSLETGVPSRFSGSGSGKDYTLSITSLQTEDVATYYCQQYWSTPYTFGGGTKLEIKR
notes: 51C10H4 with N of NG in heavy-chain CDR2 changed to Q; also called improved antibody 51C10-M2
B3: 51C10-M3 (antibody, human IgG1, kappa, V domains shown)
VH: EVQLQQSGPELVKPGASVKMSCKASGYTFTDYNMHWVKKSHGKSLEWIGYVNPNNGATSYNQKFKGKATLTVNKSSSTAYMELRSLTSEDSAVYNCARWDAYVYYYGLDYWGQGTSVTVSS
VL: DIQMTQSSSYLSVSLGGRVTITCKASDHINNWLAWYQQKPGNAPRLLISGATSLETGVPSRFSGSGSGKDYTLSITSLQTEDVATYYCQQYWSTPYTFGGGTKLEIKR
notes: 51C10H4 with G of DG in heavy-chain CDR3 changed to A; also called improved antibody 51C10-M3
B4: 51C10-M4 (antibody, human IgG1, kappa, V domains shown)
VH: EVQLQQSGPELVKPGASVKMSCKASGYTFTDYNMHWVKKSHGKSLEWIGYVNPNNGATSYNQKFKGKATLTVNKSSSTAYMELRSLTSEDSAVYNCARWEGYVYYYGLDYWGQGTSVTVSS
VL: DIQMTQSSSYLSVSLGGRVTITCKASDHINNWLAWYQQKPGNAPRLLISGATSLETGVPSRFSGSGSGKDYTLSITSLQTEDVATYYCQQYWSTPYTFGGGTKLEIKR
notes: 51C10H4 with D of DG in heavy-chain CDR3 changed to E; also called improved antibody 51C10-M4
B5: 47D5D6 (antibody, human IgG1, kappa, V domains shown)
VH: EVQLVESGGDLVKPGGSLKLSCAASGFTFSSYGMSWVRQTPDKRLEWVATISSGGSYTYYPDSVKGRFTISRDNAKNTLYLQMSSLKSEDTAMYYCARPHYVSSYAMDYWGQGTSVTVSS
VL: DIQMTQSSSSFSVSLGDRVTITCKASEDIYNRLAWYQQKPGNAPRLLISGATSLETGVPSRFSGSGSGKDYTLSITSLQTEDVATYYCQQYWSTPPTFGGGTKLEIKR
notes: chimeric: murine variable regions on human IgG1 constant regions
B6: 58G3C7 (antibody, human IgG1, kappa, V domains shown)
VH: EVQLVESGGGLVKPGGSLKLSCAASGFTFSNYAMSWVRQTPEKRLEWVATISDGGSYTSYPDNIKGRFTISRDNAKNNLYLQVTHLKSEDTAMYYCARDAILITTAGFAYWGQGTLLTVSA
VL: DIQMTQSSSSFSVSLGDRVTITCKASEDIYNRLAWYQQKPGNAPRLLISATTSLETGVPSRFSGSGSGKDYTLSITSLQTEDVATYYCQQYWSFPRTFGGGTKLEVKR
notes: as for B5
B7: 15H2D4 (antibody, human IgG1, kappa, V domains shown)
VH: QAYLQQSGAELVRSGASVKMSCKASGYTFTSYNIHWVKQTPGQGLEWIGYIYPGNGGTKYNERFKGKATLTADASSSTAYMQISSLTSEDSAVYFCARWRYYDRPTHYAMDYWGQGTSVTVSS
VL: DIVVTQSPASLAVSLGQRATISCRASKSVSTSGFSYLHWFQQKPGQPPKLLIYLASNLESGVPARFSGSGSGTDFTLNIHPVEEEDVAVYYCQHSREFPFTFGSGTKLEIKR
notes: as for B5
B8: PiH2006 (antibody, human IgG1, kappa, V domains shown)
VH: QVQLVQSGAEVKKPGASVKVSCKASGYTFTDYNMHWVRQAPGQRLEWIGYINPNNGATNYNQKFKGRVTITVDTSASTAYMELSSLRSEDTAVYNCARWDGYVYYYGMDYWGQGTLVTVSS
VL: DIQMTQSPSSLSASVGGRVTITCKASDHINNWLAWYQQKPGKAPKLLISGATSLETGVPSRFSGSGSGTDYTFTISSLQPEDIATYYCQQYWNTPYTFGGGTKLEIKR
notes: humanized from 54B5A7; IgG1; also called 54-VH2 + VL4

Legend:
[1] = biological target: T1, human CLDN6 (human, UniProt P56747 1-220); experiment: cell-based or functional assay
T1 sequence (looked up): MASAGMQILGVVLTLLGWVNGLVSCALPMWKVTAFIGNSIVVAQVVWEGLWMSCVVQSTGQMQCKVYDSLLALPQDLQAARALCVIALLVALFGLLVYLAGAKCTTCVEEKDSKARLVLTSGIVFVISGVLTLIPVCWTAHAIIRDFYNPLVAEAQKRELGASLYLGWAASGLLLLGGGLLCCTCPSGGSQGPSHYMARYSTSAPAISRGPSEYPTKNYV

[2] = biological target: T1, human CLDN6; experiment: cell-based or functional assay; remark: listed apart in the source
[3] = biological target: T1, human CLDN6; experiment: FACS on HEK293T-CLDN6 cells
Protocol: (§1) To detect a binding capacity of a chimeric or humanized antibody to CLDN6, a CLDN6-expressing cell line HEK293T-CLDN6 and a CLDN6-negative control cell line HEK293T were washed three times with PBS. 1×10⁵ test cells and 50 μL of an antibody solution to be tested were added to a 96-well plate, and incubated at 4° C. for 1 h. The cells were then washed three times with PBS. […] Finally, cells were washed three times with PBS, and signals were read using FACS.
(§2) An EC50 value (a concentration of an antibody that binds to half of binding sites at equilibrium) is calculated through nonlinear regression.

[4] = biological target: T1, human CLDN6; experiment: FACS on HEK293T-CLDN6 cells; remark: listed apart in the source
Protocol: as §1, §2

[5] = biological target: T2, monkey CLDN6 (Cyno CLDN6) (monkey (Cyno)); experiment: FACS on CHO-K1-Cyno CLDN6 cells
T2 construct: whole, on cells; also called CHO-K1-Cyno CLDN6

[6] = biological target: T3, mouse CLDN6 (mouse, UniProt Q9Z262 1-219); experiment: FACS on CHO-K1-Mouse CLDN6 cells
T3 construct: whole, on cells; also called CHO-K1-Mouse CLDN6
T3 sequence (looked up): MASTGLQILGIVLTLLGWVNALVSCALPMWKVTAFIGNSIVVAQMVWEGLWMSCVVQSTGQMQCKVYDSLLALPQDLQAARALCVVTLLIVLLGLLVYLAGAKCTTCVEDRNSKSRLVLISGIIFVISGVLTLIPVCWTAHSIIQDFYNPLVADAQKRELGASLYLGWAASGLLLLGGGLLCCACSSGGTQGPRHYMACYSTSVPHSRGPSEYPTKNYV

[7] = biological target: T4, human CLDN3 (human, UniProt O15551 1-220); experiment: FACS on 293T-CLDN3 cells, 10 µg/mL
T4 construct: whole, on cells; also called HEK293T-CLDN3
T4 sequence (looked up): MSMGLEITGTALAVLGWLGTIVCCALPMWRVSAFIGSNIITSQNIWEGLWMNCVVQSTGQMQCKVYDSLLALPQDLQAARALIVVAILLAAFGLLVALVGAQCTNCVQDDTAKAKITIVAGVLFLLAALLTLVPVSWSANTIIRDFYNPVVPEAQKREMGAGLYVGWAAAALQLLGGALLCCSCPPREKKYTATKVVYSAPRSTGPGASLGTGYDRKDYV
Protocol: (§3) 50 μL of an antibody to be tested was added to a 96-well plate, then 1× 10⁵ cells were added to each well, and incubation was conducted at 4° C. for 1 h. Cells were washed three times with PBS. […] Finally, cells were washed three times with PBS, and signals were read using FACS. Binding capacities of the antibody to CLDN9, CLDN3, and CLDN4 were analyzed separately based on detection data.

[8] = biological target: T5, human CLDN4 (human, UniProt O14493 1-209); experiment: FACS on 293T-CLDN4 cells, 10 µg/mL
T5 construct: whole, on cells; also called HEK293T-CLDN4
T5 sequence (looked up): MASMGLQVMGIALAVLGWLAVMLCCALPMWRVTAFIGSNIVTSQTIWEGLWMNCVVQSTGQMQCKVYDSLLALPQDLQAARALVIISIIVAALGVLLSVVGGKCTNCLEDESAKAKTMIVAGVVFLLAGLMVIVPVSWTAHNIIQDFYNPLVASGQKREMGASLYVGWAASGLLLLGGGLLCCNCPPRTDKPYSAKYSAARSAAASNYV
Protocol: as §3

[9] = biological target: T1, human CLDN6; experiment: FACS on 293T-CLDN6 cells, 10 µg/mL
[10] = biological target: T6, human CLDN9 (human, UniProt O95484 1-217); experiment: FACS on 293T-CLDN9 cells, 10 µg/mL
T6 construct: whole, on cells; also called HEK293T-CLDN9
T6 sequence (looked up): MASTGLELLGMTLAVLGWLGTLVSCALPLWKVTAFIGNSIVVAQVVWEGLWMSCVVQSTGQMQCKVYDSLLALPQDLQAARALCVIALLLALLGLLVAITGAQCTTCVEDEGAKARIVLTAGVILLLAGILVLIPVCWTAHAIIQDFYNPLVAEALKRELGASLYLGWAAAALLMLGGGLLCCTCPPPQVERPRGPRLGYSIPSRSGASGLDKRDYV
Protocol: as §3

[11] = biological target: T1, human CLDN6; experiment: ratio of FACS signals on CLDN6 cells over CLDN9 cells
Protocol: as §3

[12] = biological target: T1, human CLDN6; experiment: FACS on PA-1 tumour cells; target on the cells taken as CLDN6
Protocol: (§4) The specific binding of a chimeric antibody to a tumor cell was detected by FACS, and an EC50 value was calculated accordingly to evaluate an inhibitory effect of the chimeric antibody on the tumor cell.
as §3, with “1×10⁵” for “1× 10⁵”, “A binding capacity” for “Binding capacities”, “each tumor cell was” for “CLDN9, CLDN3, and CLDN4 were”, “analyzed” for “analyzed separately”

[13] = biological target: T1, human CLDN6; experiment: as above; remark: listed apart in the source
Protocol: as §3, with “1×10⁵” for “1× 10⁵”, “A binding capacity” for “Binding capacities”, “each tumor cell was” for “CLDN9, CLDN3, and CLDN4 were”, “analyzed” for “analyzed separately”

[14] = biological target: T1, human CLDN6; experiment: FACS on HepG2 tumour cells; target on the cells taken as CLDN6
Protocol: as §4
as §3, with “1×10⁵” for “1× 10⁵”, “A binding capacity” for “Binding capacities”, “each tumor cell was” for “CLDN9, CLDN3, and CLDN4 were”, “analyzed” for “analyzed separately”

[15] = biological target: T1, human CLDN6; experiment: as above; remark: listed apart in the source
Protocol: as §3, with “1×10⁵” for “1× 10⁵”, “A binding capacity” for “Binding capacities”, “each tumor cell was” for “CLDN9, CLDN3, and CLDN4 were”, “analyzed” for “analyzed separately”

[16] = biological target: T1, human CLDN6; experiment: ratio of FACS Geom.Mean on 293T-CLDN6 over 293T-CLDN9, 10 µg/mL
Protocol: as §3

[17] = biological target: T1, human CLDN6; experiment: binding to CLDN6-expressing cells; method not given
[18] = biological target: T1, human CLDN6; experiment: FACS on HepG2 tumour cells; target on the cells taken as CLDN6; remark: listed apart in the source
Protocol: as §3, with “1×10⁵” for “1× 10⁵”, “A binding capacity” for “Binding capacities”, “each tumor cell was” for “CLDN9, CLDN3, and CLDN4 were”, “analyzed” for “analyzed separately”

Binder	EC50 [3] [µg/mL]	EC50 [5] [µg/mL]	EC50 [6] [µg/mL]	Geom.Mean [7]	Geom.Mean [8]	Geom.Mean [9]	Geom.Mean [10]	CLDN6/CLDN9 signal ratio [11] [fold]	EC50 [12] [µg/mL]	CLDN6/CLDN9 ratio [16]	binding result [17]	further results
B1	0.354	0.722	0.935	103	210	44900	248	~200	0.538	181		ADCC dose-response fit: EC50 [1]: 0.0483 µg/mL; ADCC dose-response fit: LogEC50 [1]: -1.32; CDC dose-response fit: EC50 [2]: 0.178 µg/mL; CDC dose-response fit: LogEC50 [2]: -0.75; EC50 [4]: 0.235 µg/mL; EC50 [13]: 0.34 µg/mL; EC50 [14]: 0.294 µg/mL; EC50 [15]: 0.49 µg/mL
B2											binds	
B3											binds	
B4											binds	
B5	1.04	1.94	2.09	151	5620	33000	428	~50		77		
B6	0.135	0.16			8440	33800	731	~50	0.232	46		
B7	0.274	0.351	0.117	139	5280	40800	88.4		0.137	462		EC50 [14]: 0.481 µg/mL
B8												EC50 [18]: 5.84 µg/mL
